Laboratory results as given in patent publication US20240228656A1.

Biological target: cynomolgus EpCAM protein (cynomolgus)
Experiment: colorimetric ELISA

cynomolgus EpCAM protein (cynomolgus), sequence (Q1WER1 27-265 limits assumed): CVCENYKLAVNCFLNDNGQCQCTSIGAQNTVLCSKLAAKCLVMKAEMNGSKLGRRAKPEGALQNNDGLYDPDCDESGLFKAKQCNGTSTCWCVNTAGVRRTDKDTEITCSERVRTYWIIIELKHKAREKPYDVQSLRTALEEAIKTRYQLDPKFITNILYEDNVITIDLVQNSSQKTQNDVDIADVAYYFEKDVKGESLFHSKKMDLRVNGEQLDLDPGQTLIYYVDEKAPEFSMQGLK

B1: EPL159 (VHH)
VHH: QVQLQESGGGLVQAGGSLRLSCAASGFAFGNHWMYWYRQAPGRGRELVASISSGGSTNYVDSVKGRFTISRDNARNTVYLQMYSLKPEDTAVYYCGTSDNWGQGTQVTVSS
**Q.** Which results are given for B1?
**A.** Cynomolgus EpCAM/Control: 2; ELISA absorbance: 0.2 absorbance

B2: EPL145 (VHH)
VHH: QVQLQESGGGLVQAGGSLRLSCAASGFIFRAASMGWFRQSPGNERELVATVSSGGFTNYADSVKGRFTISRDNAKNTVYLQMNSLKPEDTAVYFCGATFVRSDGHHTIYGQGTQVTVSS
**Q.** B2 was tested. Which Cynomolgus EpCAM/Control did it give?
**A.** The Cynomolgus EpCAM/Control was 2.

**Q.** What about the ELISA absorbance of the same binder?
**A.** Its ELISA absorbance is 0.4 absorbance.
